Among the data in patent publication US20210130827A1 are C to T editing efficiency compared to unfused dCpf1 (NGS, HEK293T cells) and C to T editing rate (NGS, HEK293T cells, not sorted for transfected cells) (% of treated cell population) values, retold here.

Several values for one entry are separate records, joined by “and”; a condition that tells them apart may be missing. Identical values can stand only once. Some results are limits rather than exact numbers.

The assay addresses catalytically deactivated LbCpf1 (dLbCpf1)(dLbCas12a) with eight copies of GCN4 epitopes fused to the C-terminus (Lachnospiraceae bacterium). Nature of the assay: cell-based or functional assay.

On to “antibody targeted toward the GCN4 epitope fused to hAPOBEC3A (scFv)”, for which the C to T editing efficiency compared to unfused dCpf1 (NGS, HEK293T cells) is less than 5 fold; the C to T editing rate (NGS, HEK293T cells, not sorted for transfected cells) (% of treated cell population) was 7 and 19.
